The data set concerns BIP and PDI, ERP72 and ERP44. Kind of data set: ER chaperone secretion assay, all four chaperones. Type of data set: cell-based, human. Conditions: HeLa S3 cells. The source says: Figure 1. ER retrieval signal abundance and affinity are not correlated. (a) Sequence logos for ER resident proteins with C-terminal KDEL retrieval signals and variants thereof calculated using frequency or protein abundance ([Itzhak et al., 2017]; [Itzhak et al., 2016]). (b) Combined cellular concentrations of ER resident proteins with canonical KDEL, RDEL, and HDEL retrieval sequences in HeLa cells and mouse brain. (c) Competition binding assays for [^3H]-TAEHDEL and unlabelled TAEKDEL, TAERDEL, and TAEHDEL to the KDEL receptor. IC50 values for the competing peptides were used to calculate the apparent KDwith the Cheng-Prusoff equation ([Cheng and Prusoff, 1973]). (d) Endogenous KDEL receptor redistribution was measured in COS-7 cells in the absence (-ligand) or presence of K/R/H/A/DDEL (mScarlet-xDEL^sec). TGN46 was used as a Golgi marker. Scale bar is 10 µm. […] The individual data points for the fraction of KDEL receptor fluorescence in the Golgi are plotted on the upper axes with sample sizes and p values. […] Endogenous ER chaperone secretion was measured by western blotting after challenge with different retrieval signals, and plotted as a bar graph showing mean ± SEM (n = 3). […] (a) Distribution of human KDELR1 and (b) KDELR2 was measured in COS-7 cells in the absence (-ligand) or presence of K/R/H/A/DDEL retrieval signals (K/R/H/A/DDEL^sec). […]

For “ADEL [pcDNA3.1 hGHss-mScarlet-H. sapiens BiP639-654K651A (ADEL^SEC), secreted mScarlet fusion with human BiP C-terminus, ADEL signal]”, the “effect on ER retention of BIP, PDI, ERP72 and ERP44 (in words)” value is “little effect on ER retention”.
